Assay results: the supplement of paper PMC9112550, “Optimization of the antimicrobial peptide Bac7 by deep mutational scanning” (BMC Biology, 2022)

The sequences below were run on Escherichia coli TOP10 (assay: shrunken log2 fold change of peptide-encoding DNA abundance (4.5 h post-induction vs induction); higher = less antimicrobial activity (less host growth inhibition)). Conditions: time post-induction: 4.5 h; library: site-saturation at positions 5, 18, 19, 20.
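Note: peptides expressed intracellularly from a pBAD plasmid library in pooled LB shake-flask culture, induced with 0.3% L-arabinose, DNA abundance read by NGS, three biological replicates, DESeq2 with apeglm shrinkage.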

RRIRYRPPRLPRPRPRPGQHPRP and RRIRYRPPRLPRPRPRPHNGPRP are within 0.2 log units of each other in “shrunken log2 fold change” value: -0.179 for the first, -0.0705 for the second.

Going from RRIRTRPPRLPRPRPRPVVIPRP to RRIRQRPPRLPRPRPRPKRNPRP, the “shrunken log2 fold change” value falls from 1.29 to 0.29.

RRIRDRPPRLPRPRPRPITSPRP and RRIRCRPPRLPRPRPRPWVYPRP are within 0.2 log units of each other in “shrunken log2 fold change” value: -0.00293 for the first, -0.0957 for the second.

First: RRIRPRPPRLPRPRPRPMFNPRP
Second: RRIRLRPPRLPRPRPRPKMEPRP
The “shrunken log2 fold change” value of the first is lower: -0.648 for the first, -0.0157 for the second.

Compared with RRIRGRPPRLPRPRPRPYGSPRP, RRIRSRPPRLPRPRPRPGTGPRP is higher in “shrunken log2 fold change” value: -0.303 for the first, 0.103 for the second.

Going from RRIRTRPPRLPRPRPRPFWWPRP to RRIRTRPPRLPRPRPRPSCQPRP, the “shrunken log2 fold change” value falls from 0.299 to -0.21.

Compared with RRIRCRPPRLPRPRPRPKVAPRP, RRIRCRPPRLPRPRPRPMREPRP is higher in “shrunken log2 fold change” value: -0.118 for the first, 0.907 for the second.

RRIRIRPPRLPRPRPRPPWFPRP and RRIRMRPPRLPRPRPRPLDEPRP are within 0.2 log units of each other in “shrunken log2 fold change” value: -0.136 for the first, 0.0492 for the second.

Going from RRIRFRPPRLPRPRPRPFGGPRP to RRIRCRPPRLPRPRPRPSHKPRP, the “shrunken log2 fold change” value falls from -0.0524 to -0.641.

RRIRFRPPRLPRPRPRPCEYPRP and RRIRRRPPRLPRPRPRPFFYPRP are within 0.2 log units of each other in “shrunken log2 fold change” value: -0.000476 for the first, 0.0607 for the second.

RRIRMRPPRLPRPRPRPNIMPRP and RRIRYRPPRLPRPRPRPLGIPRP are within 0.2 log units of each other in “shrunken log2 fold change” value: -0.466 for the first, -0.576 for the second.

Compared with RRIRLRPPRLPRPRPRPWDPPRP, RRIRKRPPRLPRPRPRPECPPRP is higher in “shrunken log2 fold change” value: -0.125 for the first, 0.306 for the second.

RRIRGRPPRLPRPRPRPYRGPRP and RRIRNRPPRLPRPRPRPDTAPRP are within 0.2 log units of each other in “shrunken log2 fold change” value: -0.186 for the first, -0.235 for the second.

RRIRSRPPRLPRPRPRPTESPRP and RRIRSRPPRLPRPRPRPWKGPRP are within 0.2 log units of each other in “shrunken log2 fold change” value: 0.0325 for the first, -0.0267 for the second.

Going from RRIRPRPPRLPRPRPRPCMMPRP to RRIRMRPPRLPRPRPRPEINPRP, the “shrunken log2 fold change” value rises from -0.467 to 2.85.

RRIRFRPPRLPRPRPRPRRSPRP and RRIRPRPPRLPRPRPRPIIWPRP are within 0.2 log units of each other in “shrunken log2 fold change” value: 0.0713 for the first, -0.0266 for the second.

RRIRTRPPRLPRPRPRPMQFPRP and RRIRWRPPRLPRPRPRPMQDPRP are within 0.2 log units of each other in “shrunken log2 fold change” value: -0.0258 for the first, -0.13 for the second.

Going from RRIRVRPPRLPRPRPRPFEAPRP to RRIRCRPPRLPRPRPRPLRRPRP, the “shrunken log2 fold change” value rises from -0.193 to 0.519.

RRIRERPPRLPRPRPRPLVCPRP and RRIRMRPPRLPRPRPRPFNTPRP are within 0.2 log units of each other in “shrunken log2 fold change” value: 0.00932 for the first, -0.0396 for the second.

RRIRLRPPRLPRPRPRPREKPRP and RRIRPRPPRLPRPRPRPYCRPRP are within 0.2 log units of each other in “shrunken log2 fold change” value: 0.15 for the first, 0.0122 for the second.

RRIRNRPPRLPRPRPRPMKFPRP and RRIRSRPPRLPRPRPRPEHKPRP are within 0.2 log units of each other in “shrunken log2 fold change” value: -0.000903 for the first, -0.156 for the second.

Going from RRIRKRPPRLPRPRPRPWAVPRP to RRIRPRPPRLPRPRPRPPHYPRP, the “shrunken log2 fold change” value rises from 0.192 to 0.457.

RRIRERPPRLPRPRPRPRMNPRP and RRIRIRPPRLPRPRPRPWNKPRP are within 0.2 log units of each other in “shrunken log2 fold change” value: 0.0757 for the first, -0.0719 for the second.

RRIRNRPPRLPRPRPRPDWVPRP and RRIRARPPRLPRPRPRPFFMPRP are within 0.2 log units of each other in “shrunken log2 fold change” value: 0.134 for the first, -0.0309 for the second.

RRIRFRPPRLPRPRPRPMRWPRP and RRIRWRPPRLPRPRPRPHPAPRP are within 0.2 log units of each other in “shrunken log2 fold change” value: 0.264 for the first, 0.35 for the second.

Compared with RRIRDRPPRLPRPRPRPHAYPRP, RRIRERPPRLPRPRPRPYKNPRP is lower in “shrunken log2 fold change” value: -0.218 for the first, -0.756 for the second.

RRIRMRPPRLPRPRPRPKDYPRP and RRIRCRPPRLPRPRPRPHCCPRP are within 0.2 log units of each other in “shrunken log2 fold change” value: 0.224 for the first, 0.0538 for the second.

First: RRIRARPPRLPRPRPRPGGQPRP
Second: RRIRHRPPRLPRPRPRPDNWPRP
The “shrunken log2 fold change” value of the first is higher: 0.262 for the first, -0.335 for the second.

Going from RRIRARPPRLPRPRPRPWMHPRP to RRIRARPPRLPRPRPRPNDWPRP, the “shrunken log2 fold change” value rises from 0.026 to 0.466.

RRIRYRPPRLPRPRPRPKGIPRP and RRIRYRPPRLPRPRPRPDVPPRP are within 0.2 log units of each other in “shrunken log2 fold change” value: -0.228 for the first, -0.0784 for the second.

RRIRLRPPRLPRPRPRPEGDPRP and RRIRLRPPRLPRPRPRPATAPRP are within 0.2 log units of each other in “shrunken log2 fold change” value: 0.0662 for the first, 0.214 for the second.

RRIRMRPPRLPRPRPRPFCQPRP and RRIRFRPPRLPRPRPRPQAVPRP are within 0.2 log units of each other in “shrunken log2 fold change” value: 0.0975 for the first, 0.0175 for the second.

First: RRIRYRPPRLPRPRPRPVHVPRP
Second: RRIRGRPPRLPRPRPRPSPVPRP
The “shrunken log2 fold change” value of the first is lower: -1.35 for the first, 0.585 for the second.

Compared with RRIRDRPPRLPRPRPRPTMRPRP, RRIRSRPPRLPRPRPRPNSEPRP is lower in “shrunken log2 fold change” value: 1.3 for the first, -0.262 for the second.

RRIRIRPPRLPRPRPRPVNAPRP and RRIRVRPPRLPRPRPRPESKPRP are within 0.2 log units of each other in “shrunken log2 fold change” value: -0.113 for the first, 0.00683 for the second.

RRIRHRPPRLPRPRPRPIGHPRP and RRIRTRPPRLPRPRPRPNECPRP are within 0.2 log units of each other in “shrunken log2 fold change” value: -0.0911 for the first, -0.0286 for the second.

Going from RRIRFRPPRLPRPRPRPVIRPRP to RRIRIRPPRLPRPRPRPGESPRP, the “shrunken log2 fold change” value rises from -0.68 to -0.0125.

In the case of RRIRIRPPRLPRPRPRPLFYPRP, the “shrunken log2 fold change” value is reported as -0.633.
